Data from FireProtDB (doi:10.1006/jmbi.1999.2569).

B1: Ribonuclease, P00648 (parent)
chain: MMKMEGIALKKRLSWISVCLLVLVSAAGMLFSTAAKTETSSHKAHTEAQVINTFDGVADYLQTYHKLPDNYITKSEAQALGWVASKGNLADVAPGKSIGGDIFSNREGKLPGKSGRTWREADINYTSGFRNSDRILYSSDWLIYKTTDHYQTFTKIR

Variants of: B1
Conditions: Bacillus amyloliquefaciens, pH 6.3, Thermal, DSC, MES 50 mM, structure 1BNI, whole UniProt chain shown; for ddG of mutation (higher = less stable): 54.1 °C

MMKMEGIALKKRLSWISVCLLVLVSAAGMLFSTAAKTETSSHKAHTEAQVINTFDGVADYLQTYHKLPDNYITKSEAQALGWVASKGNLADVAPGKSIAGDIFSNREGKLPGKSGRTWREADINYTSGFRNSDRILYSSDWLIYKTTDHYQTFTKIR [G99A]
ddG of mutation (higher = less stable): 5.3 kcal/mol

MMKMEGIALKKRLSWISVCLLVLVSAAGMLFSTAAKTETSSHKAHTEAQVINTFDGVADYLQTYHKLPDNYITKSEAQALGWVASKGNLADVAPGKSIVGDIFSNREGKLPGKSGRTWREADINYTSGFRNSDRILYSSDWLIYKTTDHYQTFTKIR [G99V]
ddG of mutation (higher = less stable): 8.4 kcal/mol
Tm: 33 °C
change of melting temperature, mutant - wild type (higher = more stable): -21.1 °C

MMKMEGIALKKRLSWISVCLLVLVSAAGMLFSTAAKTETSSHKAHTEAQVINTFDGVADYLQTYHKLPDNYITKSEAQALGWVASKGNLADVAPGKSIGADIFSNREGKLPGKSGRTWREADINYTSGFRNSDRILYSSDWLIYKTTDHYQTFTKIR [G100A]
ddG of mutation (higher = less stable): 3.4 kcal/mol
Tm: 45.5 °C
change of melting temperature, mutant - wild type (higher = more stable): -8.6 °C

MMKMEGIALKKRLSWISVCLLVLVSAAGMLFSTAAKTETSSHKAHTEAQVINTFDGVADYLQTYHKLPDNYITKSEAQALGWVASKGNLADVAPGKSIGVDIFSNREGKLPGKSGRTWREADINYTSGFRNSDRILYSSDWLIYKTTDHYQTFTKIR [G100V]
ddG of mutation (higher = less stable): 7.8 kcal/mol
Tm: 34.5 °C
change of melting temperature, mutant - wild type (higher = more stable): -19.6 °C
